Like-named read-outs stand apart in the source and are kept apart here. Where no end group is shown, it is not given here. [ ]: non-standard residue; d: D form. The star is where a group is joined. Octanoyl = CCCCCCCC(=O)*
T1: β-catenin (full-length recombinant) (human, UniProt P35222)
T1 chain: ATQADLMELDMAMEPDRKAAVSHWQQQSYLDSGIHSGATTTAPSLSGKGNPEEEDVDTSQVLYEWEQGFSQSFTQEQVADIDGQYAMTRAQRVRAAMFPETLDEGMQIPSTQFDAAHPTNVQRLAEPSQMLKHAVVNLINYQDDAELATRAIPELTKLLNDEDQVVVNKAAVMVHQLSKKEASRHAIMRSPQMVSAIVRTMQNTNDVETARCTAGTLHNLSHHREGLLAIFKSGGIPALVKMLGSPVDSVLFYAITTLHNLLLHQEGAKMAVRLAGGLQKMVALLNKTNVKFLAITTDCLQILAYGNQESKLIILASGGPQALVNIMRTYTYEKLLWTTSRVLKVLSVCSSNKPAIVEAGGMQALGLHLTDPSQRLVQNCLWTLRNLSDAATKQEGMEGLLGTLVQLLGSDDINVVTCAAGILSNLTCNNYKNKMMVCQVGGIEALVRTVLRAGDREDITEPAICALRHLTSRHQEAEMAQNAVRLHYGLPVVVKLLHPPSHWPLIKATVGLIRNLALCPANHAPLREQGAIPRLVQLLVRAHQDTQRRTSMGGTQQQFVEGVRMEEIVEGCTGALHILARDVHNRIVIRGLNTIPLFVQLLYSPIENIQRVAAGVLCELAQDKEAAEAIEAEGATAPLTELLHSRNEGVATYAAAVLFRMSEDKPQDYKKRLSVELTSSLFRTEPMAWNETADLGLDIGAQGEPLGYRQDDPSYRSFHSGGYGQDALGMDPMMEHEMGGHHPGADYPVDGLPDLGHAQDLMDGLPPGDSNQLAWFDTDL

B1: BCL9 (protein)
chain: MHSSNPKVRSSPSGNTQSSPKSKQEVMVRPPTVMSPSGNPQLDSKFSNQGKQGGSASQSQPSPCDSKSGGHTPKALPGPGGSMGLKNGAGNGAKGKGKRERSISADSFDQRDPGTPNDDSDIKECNSADHIKSQDSQHTPHSMTPSNATAPRSSTPSHGQTTATEPTPAQKTPAKVVYVFSTEMANKAAEAVLKGQVETIVSFHIQNISNNKTERSTAPLNTQISALRNDPKPLPQQPPAPANQDQNSSQNTRLQPTPPIPAPAPKPAAPPRPLDRESPGVENKLIPSVGSPASSTPLPPDGTGPNSTPNNRAVTPVSQGSNSSSADPKAPPPPPVSSGEPPTLGENPDGLSQEQLEHRERSLQTLRDIQRMLFPDEKEFTGAQSGGPQQNPGVLDGPQKKPEGPIQAMMAQSQSLGKGPGPRTDVGAPFGPQGHRDVPFSPDEMVPPSMNSQSGTIGPDHLDHMTPEQIAWLKLQQEFYEEKRRKQEQVVVQQCSLQDMMVHQHGPRGVVRGPPPPYQMTPSEGWAPGGTEPFSDGINMPHSLPPRGMAPHPNMPGSQMRLPGFAGMINSEMEGPNVPNPASRPGLSGVSWPDDVPKIPDGRNFPPGQGIFSGPGRGERFPNPQGLSEEMFQQQLAEKQLGLPPGMAMEGIRPSMEMNRMIPGSQRHMEPGNNPIFPRIPVEGPLSPSRGDFPKGIPPQMGPGRELEFGMVPSGMKGDVNLNVNMGSNSQMIPQKMREAGAGPEEMLKLRPGGSDMLPAQQKMVPLPFGEHPQQEYGMGPRPFLPMSQGPGSNSGLRNLREPIGPDQRTNSRLSHMPPLPLNPSSNPTSLNTAPPVQRGLGRKPLDISVAGSQVHSPGINPLKSPTMHQVQSPMLGSPSGNLKSPQTPSQLAGMLAGPAAAASIKSPPVLGSAAASPVHLKSPSLPAPSPGWTSSPKPPLQSPGIPPNHKAPLTMASPAMLGNVESGGPPPPTASQPASVNIPGSLPSSTPYTMPPEPTLSQNPLSIMMSRMSKFAMPSSTPLYHDAIKTVASSDDDSPPARSPNLPSMNNMPGMGINTQNPRISGPNPVVPMPTLSPMGMTQPLSHSNQMPSPNAVGPNIPPHGVPMGPGLMSHNPIMGHGSQEPPMVPQGRMGFPQGFPPVQSPPQQVPFPHNGPSGGQGSFPGGMGFPGEGPLGRPSNLPQSSADAALCKPGGPGGPDSFTVLGNSMPSVFTDPDLQEVIRPGATGIPEFDLSRIIPSEKPSQTLQYFPRGEVPGRKQPQGPGPGFSHMQGMMGEQAPRMGLALPGMGGPGPVGTPDIPLGTAPSMPGHNPMRPPAFLQQGMMGPHHRMMSPAQSTMPGQPTLMSNPAAAVGMIPGKDRGPAGLYTHPGPVGSPGMMMSMQGMMGPQQNIMIPPQMRPRGMAADVGMGGFSQGPGNPGNMMF

Legend:
[1] = molecular target: T1, β-catenin (full-length recombinant); experiment: FP, room temperature
[2] = molecular target: T1, β-catenin (full-length recombinant); experiment: competition, ALPHA assay vs BCL9 HD2 peptide, pH 6.5
[3] = molecular target: T1, β-catenin (full-length recombinant)

Binder | Kd [1] [nM] | IC50 [2] [nM] | Kd [3] [nM]
Octanoyl-[dF][dR][dW][dL][dL][dR][dQ][dL][dA][dR][dL][dA][dQ][dL][dA][dK][dL][dT][dP][dV][dK][dL][dT][dP][dV] (also: FITC conjugate used in the FP assay) [ST316] | ~126 | ~1000 | –
B1 | – | – | ~200
